Tested on: HEK293FT cells transfected with TF library
Assay: Screening of TF condensates based on fluorescent puncta
Format: cell-based
Settings: Figure 1B numerical data; TF library screen, one value per transcriptional factor
How it was run: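 Each TF construct was introduced into HEK293FT cells using PEI at 4.8 μg/ml; glucose deprivation versus normal medium lasted 12 h. Automated confocal-style imaging of tagged TF staining, 50 fields per well, gave the puncta data.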

B1: PBX3 (protein, UniProt P40426 1-434, looked up)
Pre-B-cell leukemia …: MDDQSRMLQTLAGVNLAGHSVQGGMALPPPPHGHEGADGDGRKQDIGDILHQIMTITDQSLDEAQAKKHALNCHRMKPALFSVLCEIKEKTGLSIRGAQEEDPPDPQLMRLDNMLLAEGVSGPEKGGGSAAAAAAAAASGGSSDNSIEHSDYRAKLTQIRQIYHTELEKYEQACNEFTTHVMNLLREQSRTRPISPKEIERMVGIIHRKFSSIQMQLKQSTCEAVMILRSRFLDARRKRRNFSKQATEILNEYFYSHLSNPYPSEEAKEELAKKCSITVSQVSNWFGNKRIRYKKNIGKFQEEANLYAAKTAVTAAHAVAAAVQNNQTNSPTTPNSGSSGSFNLPNSGDMFMNMQSLNGDSYQGSQVGANVQSQVDTLRHVINQTGGYSDGLGGNSLYSPHNLNANGGWQDATTPSSVTSPTEGPGSVHSDTSN
- Z score of condensed fraction: 0.7478

B2: PATZ1 (protein, UniProt Q9HBE1 1-687, looked up)
POZ-, AT hook-, and zinc …: MERVNDASCGPSGCYTYQVSRHSTEMLHNLNQQRKNGGRFCDVLLRVGDESFPAHRAVLAACSEYFESVFSAQLGDGGAADGGPADVGGATAAPGGGAGGSRELEMHTISSKVFGDILDFAYTSRIVVRLESFPELMTAAKFLLMRSVIEICQEVIKQSNVQILVPPARADIMLFRPPGTSDLGFPLDMTNGAALAANSNGIAGSMQPEEEAARAAGAAIAGQASLPVLPGVDRLPMVAGPLSPQLLTSPFPSVASSAPPLTGKRGRGRPRKANLLDSMFGSPGGLREAGILPCGLCGKVFTDANRLRQHEAQHGVTSLQLGYIDLPPPRLGENGLPISEDPDGPRKRSRTRKQVACEICGKIFRDVYHLNRHKLSHSGEKPYSCPVCGLRFKRKDRMSYHVRSHDGSVGKPYICQSCGKGFSRPDHLNGHIKQVHTSERPHKCQTCNASFATRDRLRSHLACHEDKVPCQVCGKYLRAAYMADHLKKHSEGPSNFCSICNRGFSSASYLKVHVKTHHGVPLPQVSRHQEPILNGGAAFHCARTYGNKEGQKCSHQDPIESSDSYGDLSDASDLKTPEKQSANGSFSCDMAVPKNKMESDGEKKYPCPECGSFFRSKSYLNKHIQKVHVRALGGPLGDLGPALGSPFSPQQNMSLLESFGFQIVQSAFASSLVDPEVDQQPMGPEGK
- Z score of condensed fraction: -0.2188

B3: OVOL1 (protein, UniProt O14753 1-267, looked up)
Putative transcription factor …: MPRAFLVKKPCVSTCKRNWSELPDEERGEIYVPVSLGFCPPQPYREPEPSVAEPPSCPLALNMSLRDSSYSMAPGPCVVAQLPSEDMGHLTDPQSRDHGFLRTKMKVTLGDSPSGDLFTCRVCQKAFTYQRMLNRHMKCHNDVKRHLCTYCGKGFNDTFDLKRHVRTHTGVRPYKCSLCDKAFTQRCSLESHLKKIHGVQQKYAYKERRAKLYVCEECGCTSESQEGHVLHLKEHHPDSPLLRKTSKKVAVALQNTVTSLLQGSPHL
- Z score of condensed fraction: -0.194

B4: PIAS2 (protein, UniProt O75928 1-621, looked up)
E3 SUMO-protein ligase PIAS2: MADFEELRNMVSSFRVSELQVLLGFAGRNKSGRKHDLLMRALHLLKSGCSPAVQIKIRELYRRRYPRTLEGLSDLSTIKSSVFSLDGGSSPVEPDLAVAGIHSLPSTSVTPHSPSSPVGSVLLQDTKPTFEMQQPSPPIPPVHPDVQLKNLPFYDVLDVLIKPTSLVQSSIQRFQEKFFIFALTPQQVREICISRDFLPGGRRDYTVQVQLRLCLAETSCPQEDNYPNSLCIKVNGKLFPLPGYAPPPKNGIEQKRPGRPLNITSLVRLSSAVPNQISISWASEIGKNYSMSVYLVRQLTSAMLLQRLKMKGIRNPDHSRALIKEKLTADPDSEIATTSLRVSLMCPLGKMRLTIPCRAVTCTHLQCFDAALYLQMNEKKPTWICPVCDKKAAYESLILDGLFMEILNDCSDVDEIKFQEDGSWCPMRPKKEAMKVSSQPCTKIESSSVLSKPCSVTVASEASKKKVDVIDLTIESSSDEEEDPPAKRKCIFMSETQSSPTKGVLMYQPSSVRVPSVTSVDPAAIPPSLTDYSVPFHHTPISSMSSDLPGLDFLSLIPVDPQYCPPMFLDSLTSPLTASSTSVTTTSSHESSTHVSSSSSRSETGVITSSGSNIPDIISLD
- Z score of condensed fraction: -0.03329

B5: OLIG1 (protein, UniProt Q8TAK6 1-271, looked up)
Oligodendrocyte transcription …: MYYAVSQARVNAVPGTMLRPQRPGDLQLGASLYELVGYRQPPSSSSSSTSSTSSTSSSSTTAPLLPKAAREKPEAPAEPPGPGPGSGAHPGGSARPDAKEEQQQQLRRKINSRERKRMQDLNLAMDALREVILPYSAAHCQGAPGRKLSKIATLLLARNYILLLGSSLQELRRALGEGAGPAAPRLLLAGLPLLAAAPGSVLLAPGAVGPPDALRPAKYLSLALDEPPCGQFALPGGGAGGPGLCTCAVCKFPHLVPASLGLAAVQAQFSK
- Z score of condensed fraction: -1.059

B6: PA2G4 (protein, UniProt Q9UQ80 2-394, looked up)
Proliferation-associated …: SGEDEQQEQTIAEDLVVTKYKMGGDIANRVLRSLVEASSSGVSVLSLCEKGDAMIMEETGKIFKKEKEMKKGIAFPTSISVNNCVCHFSPLKSDQDYILKEGDLVKIDLGVHVDGFIANVAHTFVVDVAQGTQVTGRKADVIKAAHLCAEAALRLVKPGNQNTQVTEAWNKVAHSFNCTPIEGMLSHQLKQHVIDGEKTIIQNPTDQQKKDHEKAEFEVHEVYAVDVLVSSGEGKAKDAGQRTTIYKRDPSKQYGLKMKTSRAFFSEVERRFDAMPFTLRAFEDEKKARMGVVECAKHELLQPFNVLYEKEGEFVAQFKFTVLLMPNGPMRITSGPFEPDLYKSEMEVQDAELKALLQSSASRKTQKKKKKKASKTAENATSGETLEENEAGD
- Z score of condensed fraction: 0.5274

B7: ATOH8 (protein, UniProt Q96SQ7 1-321, looked up)
Transcription factor ATOH8: MKHIPVLEDGPWKTVCVKELNGLKKLKRKGKEPARRANGYKTFRLDLEAPEPRAVATNGLRDRTHRLQPVPVPVPVPVPVAPAVPPRGGTDTAGERGGSRAPEVSDARKRCFALGAVGPGLPTPPPPPPPAPQSQAPGGPEAQPFREPGLRPRILLCAPPARPAPSAPPAPPAPPESTVRPAPPTRPGESSYSSISHVIYNNHQDSSASPRKRPGEATAASSEIKALQQTRRLLANARERTRVHTISAAFEALRKQVPCYSYGQKLSKLAILRIACNYILSLARLADLDYSADHSNLSFSECVQRCTRTLQAEGRAKKRKE
- Z score of condensed fraction: -1.0319

B8: OVOL3 (protein, UniProt O00110 1-190, looked up)
Putative transcription factor …: MPRAFLVRSRRPQPPNWGHLPDQLRGDAYIPDCSSLGGPPAQQSSSVRDPWTAQPTQGNLTSAPRGPGTLGCPLCPKAFPLQRMLTRHLKCHSPVRRHLCRCCGKGFHDAFDLKRHMRTHTGIRPFRCSACGKAFTQRCSLEAHLAKVHGQPASYAYRERREKLHVCEDCGFTSSRPDTYAQHRALHRAA
- Z score of condensed fraction: -0.7593

B9: OLIG3 (protein, UniProt Q7RTU3 1-272, looked up)
Oligodendrocyte transcription …: MNSDSSSVSSRASSPDMDEMYLRDHHHRHHHHQESRLNSVSSTQGDMMQKMPGESLSRAGAKAAGESSKYKIKKQLSEQDLQQLRLKINGRERKRMHDLNLAMDGLREVMPYAHGPSVRKLSKIATLLLARNYILMLTSSLEEMKRLVGEIYGGHHSAFHCGTVGHSAGHPAHAANSVHPVHPILGGALSSGNASSPLSAASLPAIGTIRPPHSLLKAPSTPPALQLGSGFQHWAGLPCPCTICQMPPPPHLSALSTANMARLSAESKDLLK
- Z score of condensed fraction: -0.3841

B10: ATONAL1 (protein, UniProt Q92858 1-354, looked up)
Transcription factor ATOH1: MSRLLHAEEWAEVKELGDHHRQPQPHHLPQPPPPPQPPATLQAREHPVYPPELSLLDSTDPRAWLAPTLQGICTARAAQYLLHSPELGASEAAAPRDEVDGRGELVRRSSGGASSSKSPGPVKVREQLCKLKGGVVVDELGCSRQRAPSSKQVNGVQKQRRLAANARERRRMHGLNHAFDQLRNVIPSFNNDKKLSKYETLQMAQIYINALSELLQTPSGGEQPPPPPASCKSDHHHLRTAASYEGGAGNATAAGAQQASGGSQRPTPPGSCRTRFSAPASAGGYSVQLDALHFSTFEDSALTAMMAQKNLSPSLPGSILQPVQEENSKTSPRSHRSDGEFSPHSHYSDSDEAS
- Z score of condensed fraction: -0.5192

B11: PCBD (protein, UniProt P61457 2-104, looked up)
Pterin-4-alpha-carbinolamine …: AGKAHRLSAEERDQLLPNLRAVGWNELEGRDAIFKQFHFKDFNRAFGFMTRVALQAEKLDHHPEWFNVYNKVHITLSTHECAGLSERDINLASFIEQVAVSMT
- Z score of condensed fraction: -0.6656

B12: PFDN5 (protein, UniProt Q99471 2-154, looked up)
Prefoldin subunit 5: AQSINITELNLPQLEMLKNQLDQEVEFLSTSIAQLKVVQTKYVEAKDCLNVLNKSNEGKELLVPLTSSMYVPGKLHDVEHVLIDVGTGYYVEKTAEDAKDFFKRKIDFLTKQMEKIQPALQEKHAMKQAVMEMMSQKIQQLTALGAAQATAKA
- Z score of condensed fraction: 0.7455

B13: PGR (protein, UniProt P06401 1-933, looked up)
Progesterone receptor: MTELKAKGPRAPHVAGGPPSPEVGSPLLCRPAAGPFPGSQTSDTLPEVSAIPISLDGLLFPRPCQGQDPSDEKTQDQQSLSDVEGAYSRAEATRGAGGSSSSPPEKDSGLLDSVLDTLLAPSGPGQSQPSPPACEVTSSWCLFGPELPEDPPAAPATQRVLSPLMSRSGCKVGDSSGTAAAHKVLPRGLSPARQLLLPASESPHWSGAPVKPSPQAAAVEVEEEDGSESEESAGPLLKGKPRALGGAAAGGGAAAVPPGAAAGGVALVPKEDSRFSAPRVALVEQDAPMAPGRSPLATTVMDFIHVPILPLNHALLAARTRQLLEDESYDGGAGAASAFAPPRSSPCASSTPVAVGDFPDCAYPPDAEPKDDAYPLYSDFQPPALKIKEEEEGAEASARSPRSYLVAGANPAAFPDFPLGPPPPLPPRATPSRPGEAAVTAAPASASVSSASSSGSTLECILYKAEGAPPQQGPFAPPPCKAPGASGCLLPRDGLPSTSASAAAAGAAPALYPALGLNGLPQLGYQAAVLKEGLPQVYPPYLNYLRPDSEASQSPQYSFESLPQKICLICGDEASGCHYGVLTCGSCKVFFKRAMEGQHNYLCAGRNDCIVDKIRRKNCPACRLRKCCQAGMVLGGRKFKKFNKVRVVRALDAVALPQPVGVPNESQALSQRFTFSPGQDIQLIPPLINLLMSIEPDVIYAGHDNTKPDTSSSLLTSLNQLGERQLLSVVKWSKSLPGFRNLHIDDQITLIQYSWMSLMVFGLGWRSYKHVSGQMLYFAPDLILNEQRMKESSFYSLCLTMWQIPQEFVKLQVSQEEFLCMKVLLLLNTIPLEGLRSQTQFEEMRSSYIRELIKAIGLRQKGVVSSSQRFYQLTKLLDNLHDLVKQLHLYCLNTFIQSRALSVEFPEMMSEVIAAQLPKILAGMVKPLLFHKK
- Z score of condensed fraction: 1.815

Reference: paper PMC11574045, “A cofactor-induced repressive type of transcription factor condensation can be induced by synthetic peptides to suppress tumorigenesis” (The EMBO Journal, 2024)
